Assay results as given in US20230265198A1 (TWIST BIOSCIENCE, published 2023).

Assays:
[1] = biological target: neuropilin-1 (NRP1) on HEK293 cells overexpressing NRP1 (UniProt O14786); assay: flow cytometry, HEK293-NRP1 vs HEK293
[2] = biological target: neuropilin-1 (NRP1), analyte in SPR (UniProt O14786 22-644, limits assumed); assay: SPR, Carterra LSA, antibody coupled
Experimental: SPR experiments were performed on a Carterra LSA SPR biosensor equipped with a HC30M chip at 25° C. in HBS-TE. Antibodies were diluted to 10 μg/mL and amine-coupled to the sensor chip by EDC/NHS activation, followed by ethanolamine HCl quenching. Increasing concentrations of analyte were flowed over the sensor chip in HBS-TE with 0.5 mg/mL BSA with 5-minute association and 15-minute dissociation. Following each injection cycle the surface was regenerated with 2× 30-second injections of IgG elution buffer (Thermo). Data were analyzed in Carterra's Kinetics Tool software with 1:1 binding model.

| 100 nM FACS (MFI Ratio) [1] | binding result [2] | Binder |
| --- | --- | --- |
| 2.1 | no binding | NRP1-27 (VHH) VHH: EVQLVESGGGLVQPGGSLRLSCAASGFRFGDYPMGWFRQAPGKEREFVSAISWSGGSTVYADSVKGRFTISADNSKNTAYLQMNSLKPEDTAVYYCALGPVRRSRLEWGQGTLVTVSS |
| 1.6 | – | NRP1-44 (VHH) VHH: EVQLVESGGGLVQPGGSLRLSCAASGRSFSTYIMGWFRQAPGKERELVARITSGGYTYADSVKGRFTISADNSKNTAYLQMNSLKPEDTAVYYCAADVSPSYGSRWYWGQGTLVTVSS |
| 1.5 | – | NRP1-43 (VHH) VHH: EVQLVESGGGLVQPGGSLRLSCAASGYFASWYYMGWFRQAPGKEREWVATIYSPSGSAVYADSVKGRFTISADNSKNTAYLQMNSLKPEDTAVYYCARDSFYDGSGYSPWGQGTLVTVSS |
| 1.9 | – | NRP1-70 (VHH) VHH: EVQLVESGGGLVQPGGSLRLSCAASGDTFSRYTMGWFRQAPGKEREFVATIWWTFDAPYYADSVKGRFTISADNSKNTAYLQMNSLKPEDTAVYYCAARSPMSPTWDWGQGTLVTVSS |
| 1.9 | – | NRP1-53 (VHH) VHH: EVQLVESGGGLVQPGGSLRLSCAASGRTFNRYPMGWFRQAPGKEREWVAAITPQGVPNYADSVKGRFTISADNSKNTAYLQMNSLKPEDTAVYYCAIHTSREIWGQGTLVTVSS |
| 1.9 | – | NRP1-58 (VHH) VHH: EVQLVESGGGLVQPGGSLRLSCAASGRTFNRYPMGWFRQAPGKEREWVAGINSGGGTWYADSVKGRFTISADNSKNTAYLQMNSLKPEDTAVYYCAIHTSREIWGQGTLVTVSS |
| 1.5 | – | NRP1-62 (VHH) VHH: EVQLVESGGGLVQPGGSLRLSCAASGSSLSNYTMGWFRQAPGKERELVATIWWTVGAPYYADSVKGRFTISADNSKNTAYLQMNSLKPEDTAVYYCAAYQRGWGDWGQGTLVTVSS |
| 1.5 | – | NRP1-277 (antibody, IgG2, V domains shown) VH: EVQLLESGGGLVQPGGSLRLSCAASGFRFSTYAMSWVRQAPGKGLEWVSTVSGSGAYTYYADSVKGRFTISRDNSKNTLYLQMNSLRAEDTAVYYCADIAVAGTWGQGTLVTVSS VL: DIQMTQSPSSLSASVGDRVTITCRASQRISDYLNWYQQKPGKAPKLLIYAASTLQSGVPSRFSGSGSGTDFTLTISSLQPEDFATYYCQQSFSTPITFGGGTKVEIK |
| 1.6 | – | NRP1-297 (antibody, IgG2, V domains shown) VH: EVQLLESGGGLVQPGGSLRLSCAASGFTFGRYAMSWVRQAPGKGLEWVSSISGSGGSTYYTDSVKGRFTISRDNSKNTLYLQMNSLRAEDTAVYYCVRALAGRRDHWGQGTLVTVSS VL: DIQMTQSPSSLSASVGDRVTITCRTSQRISTSLNWYQQKPGKAPKLLIYGASNLQSGAPSRFSGSGSGTDFTLTISSLQPEDFATYYCQQSYFTPITFGGGTKVEIK |
| 1.5 | – | NRP1-296 (antibody, IgG2, V domains shown) VH: EVQLLESGGGLVQPGGSLRLSCAASGFTFSGHAMSWVRQAPGKGLEWVSGISGSGGKIYYADSVKGRFTISRDNSKNTLYLQMNSLRAEDTAVYYCTRDVRSKDYVRGSSRYHGGMDVWGQGTLVTVSS VL: DIQMTQSPSSLSASVGDRVTITCRASHSISRYLNWYQQKPGKAPKLLIYSASSLRSGVPSRFSGSGSGTDFTLTISSLQPEDFATYYCQQRYITPWTFGGGTKVEIK |
